A word on the Kd: it is the free concentration of one partner at which half of the binding sites on the other are occupied at equilibrium, for simple one-to-one binding. A lower Kd goes with tighter binding.

Bounds are passed on as bounds.

T1: PUF4 RNA-binding domain (Saccharomyces cerevisiae, UniProt P25339 537-888)
T1 sequence: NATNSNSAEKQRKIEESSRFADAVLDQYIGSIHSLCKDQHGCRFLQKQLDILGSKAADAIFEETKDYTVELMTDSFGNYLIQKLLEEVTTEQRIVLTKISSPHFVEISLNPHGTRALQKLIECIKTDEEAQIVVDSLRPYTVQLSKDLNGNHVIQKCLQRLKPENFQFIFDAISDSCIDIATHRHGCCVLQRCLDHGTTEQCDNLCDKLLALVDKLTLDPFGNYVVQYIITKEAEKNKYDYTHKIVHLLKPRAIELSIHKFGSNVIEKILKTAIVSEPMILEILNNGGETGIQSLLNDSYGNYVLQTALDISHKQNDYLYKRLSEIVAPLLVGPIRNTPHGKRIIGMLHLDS

The data set deals with T1, PUF4 RNA-binding domain. Kind of data set: Mg; RNA-MaP; 20 mM Na-HEPES pH 7.4, 30 mM KOAc, 0.75 mM MgCl2, 0.1% Tween-20, 5% glycerol, 0.1 mg/mL BSA, 2 mM DTT; 25 C; 0.0125-409.6 nM protein. The note with it: tags: N-His6-TEV cleaved; C-SNAP kept, Cy3B-labelled; label: tethered on chip by stalled RNA polymerase.
UCUCUUUGUGUAUUAUUAAUUCUCUU (ssRNA) [Id_ii_S1_P5E.2_K5.1_C5.2_[C-2T]_[T-1G]_H5.1_A5.1_F5.1_T5.2_[T11A]_[A12T]] gave an equilibrium dissociation constant (Kd) of 4.68 nM. Regarding UCUCUUGCUGUAUUAUUAUCUCUCUU (ssRNA) [Id_ii_S1_P5E.2_K5.1_C5.2_[C-2G]_[T-1C]_H5.1_A5.1_F5.1_T5.2_[A12C]], the affinity, expressed as Kd, was 11.7 nM. The value for UCUCUUUGUGUAUUAUUAACUCUCUU (ssRNA) [Id_ii_S1_P5E.2_K5.1_C5.2_[C-2T]_[T-1G]_H5.1_A5.1_F5.1_T5.2_[T11A]_[A12C]] was 3.86 nM. Regarding UCUCUUUGUGUAUUAUUAGUUCUCUU (ssRNA) [Id_ii_S1_P5E.2_K5.1_C5.2_[C-2T]_[T-1G]_H5.1_A5.1_F5.1_T5.2_[T11G]_[A12T]], the Kd amounted to 2.43 nM. The value for UCUCUUGUUGUAUUAUUAUUUCUCUU (ssRNA) [Id_ii_S1_P5E.2_K5.1_C5.2_[C-2G]_H5.1_A5.1_F5.1_T5.2_[A12T]] was 6.28 nM; that for UCUCUUCAACACUAUUAAUUCUCUU (ssRNA) [Id_ii_S1_P4E.4_K4.3_C4.2_[T-1A]_H4.3_A4.1_F4.1_T4.2_[G10A]] was over 2300 nM; that for UCUCUUGCUGUAUUAUUAUUUCUCUU (ssRNA) [Id_ii_S1_P5E.2_K5.1_C5.2_[C-2G]_[T-1C]_H5.1_A5.1_F5.1_T5.2_[A12T]] was 10.5 nM. For the molecule UCUCUUUGUAUUAAUAUCUCUU (ssRNA) [Ia_S1_P5E.1_K5.1_C5.1_H5.1_A5.1_F5.1_[T8A]_T5.1], the dissociation constant Kd is 9.4 nM. The value for UCUCUUGCUGUAUUAUUAAUUCUCUU (ssRNA) [Id_ii_S1_P5E.2_K5.1_C5.2_[C-2G]_[T-1C]_H5.1_A5.1_F5.1_T5.2_[T11A]_[A12T]] was 21.6 nM; that for UCUCUUUGUGUAUUAUUAUCUCUCUU (ssRNA) [Id_ii_S1_P5E.2_K5.1_C5.2_[C-2T]_[T-1G]_H5.1_A5.1_F5.1_T5.2_[A12C]] was 3.72 nM; that for UCUCUUCAACACUAUUAUAUCUCUU (ssRNA) [Id_ii_S1_P4E.4_K4.3_C4.2_[T-1A]_H4.3_A4.1_F4.1_T4.2_[G10T]_[T11A]] was over 2300 nM. In turn, UCUCUUUGUAAUUUAUCUCUU (ssRNA) [Ic_S1_P4E.1_K4.1_C4.1_H4.1_A4.1_[T5A]_[A6T]_F4.1_T4.1] registered an equilibrium dissociation constant (Kd) of 3.77 nM. With UCUCUUCAACACUAUUACUUCUCUU (ssRNA) [Id_ii_S1_P4E.4_K4.3_C4.2_[T-1A]_H4.3_A4.1_F4.1_T4.2_[G10C]], the dissociation constant Kd is over 2300 nM. The value for UCUCUUGUUGUAUUAUUAUCUCUCUU (ssRNA) [Id_ii_S1_P5E.2_K5.1_C5.2_[C-2G]_H5.1_A5.1_F5.1_T5.2_[A12C]] was 6.74 nM; that for UCUCUUCUACACUAUUAUAUCUCUU (ssRNA) [Id_ii_S1_P4E.4_K4.3_C4.2_H4.3_A4.1_F4.1_T4.2_[G10T]_[T11A]] was 965 nM. In turn, UCUCUUCUACACUAUUAUUUCUCUU (ssRNA) [Id_ii_S1_P4E.4_K4.3_C4.2_H4.3_A4.1_F4.1_T4.2_[G10T]] came in with an equilibrium dissociation constant (Kd) of over 2300 nM.

The molecule UCUCUUCAACACUAUUACGUCUCUU (ssRNA) [Id_ii_S1_P4E.4_K4.3_C4.2_[T-1A]_H4.3_A4.1_F4.1_T4.2_[G10C]_[T11G]] showed a Kd of over 2300 nM. In the case of UCUCUUGCUGUAUUAUUAACUCUCUU (ssRNA) [Id_ii_S1_P5E.2_K5.1_C5.2_[C-2G]_[T-1C]_H5.1_A5.1_F5.1_T5.2_[T11A]_[A12C]] it was 15.2 nM; in that of UCUCUUCAACACUAUUAGUUCUCUU (ssRNA) [Id_ii_S1_P4E.4_K4.3_C4.2_[T-1A]_H4.3_A4.1_F4.1_T4.2], over 2300 nM. In turn, UCUCUUUGUGUAUUAUUAUUUCUCUU (ssRNA) [Id_ii_S1_P5E.2_K5.1_C5.2_[C-2T]_[T-1G]_H5.1_A5.1_F5.1_T5.2_[A12T]] gave a Kd of 3.95 nM. The value for UCUCUUUCUGUAUUAUUAAGUCUCUU (ssRNA) [Id_ii_S1_P5E.2_K5.1_C5.2_[C-2T]_[T-1C]_H5.1_A5.1_F5.1_T5.2_[T11A]_[A12G]] was 11.5 nM. UCUCUUCUACACUAUUAUCUCUCUU (ssRNA) [Id_ii_S1_P4E.4_K4.3_C4.2_H4.3_A4.1_F4.1_T4.2_[G10T]_[T11C]] yielded a Kd of 1700 nM.

Molecule UCUCUUGUUGUAUUAUUAAUUCUCUU (ssRNA) [Id_ii_S1_P5E.2_K5.1_C5.2_[C-2G]_H5.1_A5.1_F5.1_T5.2_[T11A]_[A12T]] came in with a Kd of 9.79 nM. As to UCUCUUGUUGUAUUAUUAAAUCUCUU (ssRNA) [Id_ii_S1_P5E.2_K5.1_C5.2_[C-2G]_H5.1_A5.1_F5.1_T5.2_[T11A]], the equilibrium dissociation constant (Kd) was found to be 11.7 nM.

In turn, UCUCUUUGUACACUAUCUCUU (ssRNA) [Ib_S1_P4E.1_K4.1_C4.1_H4.1_A4.1_[T5C]_[T7C]_F4.1_T4.1] returned a Kd of 0.824 nM.

For the origin of these results see article PMC9352680, “A comprehensive thermodynamic model for RNA binding by the Saccharomyces cerevisiae Pumilio protein PUF4”.
